Test system: T1, GtrR (Burkholderia cenocepacia H111), ORF:a5d7dc98
T1 sequence: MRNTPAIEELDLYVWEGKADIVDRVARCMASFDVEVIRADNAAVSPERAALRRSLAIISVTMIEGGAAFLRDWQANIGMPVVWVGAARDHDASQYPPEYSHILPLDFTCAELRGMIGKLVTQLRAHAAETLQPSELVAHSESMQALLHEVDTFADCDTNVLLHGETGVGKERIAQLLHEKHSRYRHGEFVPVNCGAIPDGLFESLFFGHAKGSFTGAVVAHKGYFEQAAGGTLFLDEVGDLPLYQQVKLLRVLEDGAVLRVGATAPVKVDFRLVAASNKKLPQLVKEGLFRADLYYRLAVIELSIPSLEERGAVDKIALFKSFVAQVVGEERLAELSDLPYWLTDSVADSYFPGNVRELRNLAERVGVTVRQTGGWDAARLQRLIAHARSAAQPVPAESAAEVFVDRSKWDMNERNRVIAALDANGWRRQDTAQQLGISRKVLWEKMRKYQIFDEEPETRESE
Assay: EMSA
Settings: Binding reactions per manufacturer's instructions (Thermo), 3'-biotin probes, 5% polyacrylamide gel; buffer, salt, pH and temperature not stated

GGCTTGCGTATTTCTGGCCCGGTTGATTGATTTTGGTTGTGATTTTTTGCCACGCAACGTCGAAAACGCATCGCGCGGCCCCAGTTCGCTCTCGTATCGAAAATGAGATTTTCGATTTCGCAGACAATTGTTAAATGCGGAACCGATATCCGTCAACCTGAGAAAACGGGCGGCTTGCGTAAAATCGAAATCGCGGGTACCGGTTTAAGGTTGCAATGCAGCA (double strand) [Bcal3178 promoter 223 bp]
binding: no binding

— PMC8174753
